Assay results as given in patent US20240052061A1 (published 2024).

B1: 3E9 Hu/Ra (antibody, V domains shown)
VH: QSLEESGGDLVKPGASLTLTCTASGFSFSSSDWICWVRQAPGKGLEWIACIYAGSIGGAYFASWVNGRFTISRASSTTVTLQMTSLTAADTATYFCARSSSNGRLKLDQFDLWGPGTLVTVSS
VL: AYDMTQTPASVEVAVGGTVTINCQASQSIGGWLSWYRQKPGQPPSLLIYKASTLASGVSSRFSGTGSRTHFTLTINGVQCADAATYYCQQGSAADVANTFGGGTEVVVKG
B2: 44H5 Hu/Ra (antibody, V domains shown)
VH: QEQLEESGGDLVKPEGSLTLTCTASGFDSSSTYYMCWVRQAPGKGLEWSGCIYTGGLTYYASWAKGRFTISKTSSTTVTLQMTSLTAADTATYFCASYIGSRFYMPGFSLWGPGTLVTVSS
VL: AIVMTQTPSSKSVPVGDTVTINCQASESIYSNNRLAWFQQKPGQPPKLLIYLASTLASGVPSRFKGSGSGTQFTLTISDVVCDDAATYYCAGYKGSSTDGTAFGGGTEVVVKG
B3: PBI #30af8 hIgG1 (antibody, V domains shown)
VH: QVQLQESGGGLIQPGGSLRLSCAASGFQSDSSDYAMSWVRQAPGKGLEWVSSISGTGGSTYYADSVKGRFTISRDNSKNTLYVQMTSLTAEDTAVYYCAKVVGFSTYDYYYHYALDVWGQGTTVTVSS
VL: QPVLTQPPSASGTPGQRVTISCSGSSSNIGSNTVNWYQQLPGTAPKLLIYSDDQRPSGVPDRFSGSKSGTSASLTISGLKTEDEAGYYCQSYDTSNVVFGGGTKVTVL
B4: PBI #30af4 hIgG1 (antibody, V domains shown)
VH: QVQLQESGGGLIQPGGSLRLSCAASGFTSSSSDYAMSWVRQAPGKGLEWVSSISGSGVSTYYADSVKGRFTISRDNSKNTLYVQMTSLTAEDTAVYYCAKVVGYSVYDYYYHYALDVWGQGTTVTVSS
VL: QPVLTQPPSASGTPGQRVTISCSGSSSNIGSNTVNWYQQLPGTAPKLLIYSDNQRPSGVPDRFSGSKSGTSASLTISGLKTEDEAGYYCQSDDTSNVVFGGGTKVTVL
B5: PBI #30af4 hIgG4 (antibody, V domains shown)
VH: QVQLQESGGGLIQPGGSLRLSCAASGFTSSSSDYAMSWVRQAPGKGLEWVSSISGSGVSTYYADSVKGRFTISRDNSKNTLYVQMTSLTAEDTAVYYCAKVVGYSVYDYYYHYALDVWGQGTTVTVSS
VL: QPVLTQPPSASGTPGQRVTISCSGSSSNIGSNTVNWYQQLPGTAPKLLIYSDNQRPSGVPDRFSGSKSGTSASLTISGLKTEDEAGYYCQSDDTSNVVFGGGTKVTVL
B6: PBI #30af6 hIgG4 (antibody, V domains shown)
VH: QVQLQESGGGLIQPGGSLRLSCAASGFTSSSSDYAMSWVRQAPGKGLEWVSSISGSGGSTYYADSVKGRFTISRDNSKNTLYVQMTSLTAEDTAVYYCAKVFGYSMYDYYYHYALDVWGQGTTVTVSS
VL: QPVLTQPPSASGTPGQRITISCSGSSSNIGSNTVNWYQQLPGTAPKLLIYSNNQRPSGVPDRFSGSKSGTSASLTISGLKTEDEAGYYCQSDDTSNVVFGGGTKVTVL
B7: PBI #30 hIgG1 (antibody, V domains shown)
VH: QVQLQESGGGLIQPGGSLRLSCAASGFTSSSSDYAMSWVRQAPGKGLEWVSSISGSGGSTYYADSVKGRFTISRDNSKNTLYVQMTSLTAEDTAVYYCAKVVGYSMYDYYYHYALDVWGQGTTVTVSS
VL: QPVLTQPPSASGTPGQRVTISCSGSSSNIGSNTVNWYQQLPGTAPKLLIYSNNQRPSGVPDRFSGSKSGTSASLTISGLKTEDEAGYYCQSYDTSNVVFGGGTKVTVLG
B8: PBI #30af8 hIgG4 (antibody, V domains shown)
VH: QVQLQESGGGLIQPGGSLRLSCAASGFQSDSSDYAMSWVRQAPGKGLEWVSSISGTGGSTYYADSVKGRFTISRDNSKNTLYVQMTSLTAEDTAVYYCAKVVGFSTYDYYYHYALDVWGQGTTVTVSS
VL: QPVLTQPPSASGTPGQRVTISCSGSSSNIGSNTVNWYQQLPGTAPKLLIYSDDQRPSGVPDRFSGSKSGTSASLTISGLKTEDEAGYYCQSYDTSNVVFGGGTKVTVL
B9: PBI #30af6 hIgG1 (antibody, V domains shown)
VH: QVQLQESGGGLIQPGGSLRLSCAASGFTSSSSDYAMSWVRQAPGKGLEWVSSISGSGGSTYYADSVKGRFTISRDNSKNTLYVQMTSLTAEDTAVYYCAKVFGYSMYDYYYHYALDVWGQGTTVTVSS
VL: QPVLTQPPSASGTPGQRITISCSGSSSNIGSNTVNWYQQLPGTAPKLLIYSNNQRPSGVPDRFSGSKSGTSASLTISGLKTEDEAGYYCQSDDTSNVVFGGGTKVTVL
B10: PBI #30af7 hIgG4 (antibody, V domains shown)
VH: QVQLQESGGGLIQPGGSLRLSCAASGFTTSSSDYAMSWVRQAPGKGLEWVSSISGSGGSTYYADSVKGRFTISRDNSKNTLYVQMTSLTAEDTAVYYCAKDVGYSTYDYYYHYALDVWGQGTTVTVSS
VL: QPVLTQPPSASGTPGQRVTISCSGSSSNVGSNTVNWYQQLPGTAPKLLIYSNNQRPSGVPDRFSGSKSGTSASLTISGLKTEDEAGYYCQSYDTSNVVFGGGTKVTVL
B11: PBI #30af7 hIgG1 (antibody, V domains shown)
VH: QVQLQESGGGLIQPGGSLRLSCAASGFTTSSSDYAMSWVRQAPGKGLEWVSSISGSGGSTYYADSVKGRFTISRDNSKNTLYVQMTSLTAEDTAVYYCAKDVGYSTYDYYYHYALDVWGQGTTVTVSS
VL: QPVLTQPPSASGTPGQRVTISCSGSSSNVGSNTVNWYQQLPGTAPKLLIYSNNQRPSGVPDRFSGSKSGTSASLTISGLKTEDEAGYYCQSYDTSNVVFGGGTKVTVL
B12: 38D12 Hu/Ra (antibody, V domains shown)
VH: QSVEESGGRLVTPGTPLTLTCTVSGFSLSSYVINWVRQAPGKGLEWIGTISSSGSTYYASWAKGRFTISTTSSTTVDLKITSPTTEDTATYFCARGADGAFISDYFNIWGPGTLVTVSS
VL: DIVMTQTPSSVSAAVGGTVTIKCQANENIDSWLAWYQQKPGQRPKLLIYYASTLASGVPSRFKGSGSGTEYTLTISDLECADGATYYCQSYDTISDYGVGFGGGTEVVVKG
B13: 37H1 Hu/Ra (antibody, V domains shown)
VH: QSVEESGGRLVTPGTPLTLTCTVSGFSLSSYAVGWVRQAPGKGLEFIGIITYNGATYYASWAEGRFPISKTSSTTVDLKMTSPTTEDTATYFCARARYGGYSTNSYYLNIWGPGTLVTVSS
VL: DVVMTQTPASVSAAVGGTVTINCQASENIYRILAWYQQKPGQRPKLLIYGASNLETGVPSRFKGSGSGTEYTLTISDLECDDAATYYCQGVLWNSNDSTFGGGTEVVVKG
B14: 42D8 Hu/Ra (antibody, V domains shown)
VH: QSVEESGGRLVTPGTPLTLTCTVSGFSLSSYAMGWVRQAPGKGLEFIGIITYNSNTYYANWAKGRFPISKTSSTTVDLKMTSPTTEDTATYFCARARYGGYSTNSYYLNIWGPGTLVTVSS
VL: DVVMTQTPASVSAAVGGTVTINCQASENIYRILAWYQQKPGQPPKLLIYGASNLETGVPSRFKGSGSGTEYTLTISDLECDDAATYYCQGVLYNSNDSTFGGGTEVVVKG
B15: 4F9 Hu/Ra (antibody, V domains shown)
VH: QSVEESGGRLVTPGTPLTLTCTVSGFSLSSYAMGWVRQAPGKGLEFIGIITYNGNTYYASWAKGRFPISKTSSTTVDLKMTSPTTEDTATYFCARARYGGYSTNSYYLNIWGPGTLVTVSS
VL: DVVMTQTPASVSAAVGGTVTINCQASENIYRILAWYQQKPGQRPKLLIYGASNLETGVPSRFKGSGSGTEYTLTISDLECDDAATYYCQGVLYNSNDSTFGGGTEVVVKG
B16: 16D4 Hu/Ra (antibody, V domains shown)
VH: QSVEESGGRLVTPGTPLTLTCTVSGFSLSSYAMGWVRQAPGKGLEFIGIITYNGGTYYASWAKGRFPISKTSSTTVDLKMTSPTTEDTATYFCARARYGGYSTNSYYLNIWGPGTLVTVSS
VL: DVVMTQTPASVSAAVGGTVTINCQASENIYRVLAWYQQKPGQRPKLLIYGASNLETGVPSRFKGSGSGTEYTLTISDLECDDAATYYCQGVLYDNNDSTFGGGTEVVVKG

Assays:
[1] = target: T1, human ecto-nucleoside triphosphate diphosphohydrolase-3 (NTPDase3) (human, UniProt O75355 1-529); test: flow cytometry; CHO-hENTPD3 cells
T1 chain: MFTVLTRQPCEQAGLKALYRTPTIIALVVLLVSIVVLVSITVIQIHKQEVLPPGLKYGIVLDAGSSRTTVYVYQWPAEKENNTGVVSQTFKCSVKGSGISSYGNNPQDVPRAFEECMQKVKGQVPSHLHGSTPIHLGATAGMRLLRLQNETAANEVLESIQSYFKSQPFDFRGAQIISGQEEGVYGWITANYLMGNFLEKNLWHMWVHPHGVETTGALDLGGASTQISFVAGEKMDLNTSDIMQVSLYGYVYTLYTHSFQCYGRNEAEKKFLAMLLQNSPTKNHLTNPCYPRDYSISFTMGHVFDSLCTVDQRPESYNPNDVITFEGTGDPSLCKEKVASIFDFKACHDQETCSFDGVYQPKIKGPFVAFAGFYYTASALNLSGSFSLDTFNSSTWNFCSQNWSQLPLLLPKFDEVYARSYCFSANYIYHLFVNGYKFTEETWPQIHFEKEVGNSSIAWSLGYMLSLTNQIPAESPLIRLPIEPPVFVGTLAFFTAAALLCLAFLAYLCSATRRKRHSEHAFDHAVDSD

[2] = target: T1, human ecto-nucleoside triphosphate …; test: flow cytometry; HEK293T-hENTPD3 cells
[3] = target: T1, human ecto-nucleoside triphosphate …; test: flow cytometry; COS7-hENTPD3 cells
[4] = target: T1, human ecto-nucleoside triphosphate …; test: flow cytometry; RT4 cells
[5] = target: T1, human ecto-nucleoside triphosphate …; test: flow cytometry; COS7-hENTPD3 cells
[6] = target: T1, human ecto-nucleoside triphosphate …; test: flow cytometry; CHO-hENTPD3 cells
[7] = target: T1, human ecto-nucleoside triphosphate …; test: flow cytometry; CHO-hENTPD3 cells, 20 min at 4°C

| Binder | Kd [1] [nM] | Kd [2] [nM] | Kd [3] [nM] | Kd [4] [nM] | Kd [5] [nM] | Kd [6] [nM] | Kd [7] [nM] |
| --- | --- | --- | --- | --- | --- | --- | --- |
| B1 | 1.94 | 1.79 | 0.63 | – | – | – | – |
| B2 | 0.95 | 0.15 | 0.3 | 1.15 | – | – | – |
| B3 | – | – | – | – | 1.26 | 1.8 | – |
| B4 | – | – | – | – | 1.26 | 1.62 | – |
| B5 | – | – | – | – | 1.28 | 1.82 | – |
| B6 | – | – | – | – | 1.58 | 2.18 | – |
| B7 | – | – | – | – | – | 1.64 | 20.9 |
| B8 | – | – | – | – | 1.43 | 1.9 | – |
| B9 | – | – | – | – | 1.63 | 1.85 | – |
| B10 | – | – | – | – | 2.83 | 2.61 | – |
| B11 | – | – | – | – | 1.68 | 1.87 | – |
| B12 | 8.3 | 3.06 | 2.8 | 2.63 | – | – | – |
| B13 | 2.26 | 1.4 | 0.54 | 0.16 | – | – | – |
| B14 | 1.96 | 0.55 | 0.64 | – | – | – | – |
| B15 | 1.52 | 0.46 | 0.45 | 0.19 | – | – | – |
| B16 | 1.94 | 0.38 | 0.8 | 0.2 | – | – | – |
